T1: cynomolgus monkey FcγRIIb extracellular domain with C-terminal His-tag (cynomolgus monkey)
T1 construct: also called cyno FcγRIIb; cynoFcγRIIb
T1 chain: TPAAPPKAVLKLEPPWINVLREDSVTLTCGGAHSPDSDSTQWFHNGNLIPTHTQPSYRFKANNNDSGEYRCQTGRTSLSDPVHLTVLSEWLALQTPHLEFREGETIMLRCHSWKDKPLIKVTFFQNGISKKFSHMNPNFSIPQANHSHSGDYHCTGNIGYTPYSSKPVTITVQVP

T2: cynomolgus monkey FcγRIIIaS extracellular domain with C-terminal His-tag (cynomolgus monkey, UniProt Q8SPW2 21-206 at identity 1.00))
T2 construct: also called cyno FcγRIIIaS; FcgRIIIaS
T2 chain: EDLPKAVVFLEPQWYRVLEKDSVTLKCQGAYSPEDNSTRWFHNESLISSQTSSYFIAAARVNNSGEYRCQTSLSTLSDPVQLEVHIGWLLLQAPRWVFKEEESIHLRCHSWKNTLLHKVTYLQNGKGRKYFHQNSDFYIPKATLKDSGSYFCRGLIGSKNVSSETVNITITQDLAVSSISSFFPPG

T3: cynomolgus monkey FcγRIIa2 extracellular domain with C-terminal His-tag (cynomolgus monkey)
T3 construct: also called cyno FcγRIIa2; FcgRIIa2
T3 chain: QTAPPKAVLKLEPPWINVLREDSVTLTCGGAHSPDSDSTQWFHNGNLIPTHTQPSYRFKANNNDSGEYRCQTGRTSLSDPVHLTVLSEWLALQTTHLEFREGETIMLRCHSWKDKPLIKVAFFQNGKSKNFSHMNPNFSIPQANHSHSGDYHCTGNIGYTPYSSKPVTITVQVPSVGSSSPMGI

T4: cynomolgus monkey FcγRIIa1 extracellular domain with C-terminal His-tag (cynomolgus monkey)
T4 construct: also called cyno FcγRIIa1; FcgRIIa1
T4 chain: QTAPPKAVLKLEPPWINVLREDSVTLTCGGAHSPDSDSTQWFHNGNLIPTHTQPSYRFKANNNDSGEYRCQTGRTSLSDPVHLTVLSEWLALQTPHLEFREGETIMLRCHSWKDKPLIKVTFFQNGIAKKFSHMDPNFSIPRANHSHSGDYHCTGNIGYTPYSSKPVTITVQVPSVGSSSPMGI

T5: cynomolgus monkey FcγRIIa3 extracellular domain with C-terminal His-tag (cynomolgus monkey)
T5 construct: also called cyno FcγRIIa3; FcgRIIa3
T5 chain: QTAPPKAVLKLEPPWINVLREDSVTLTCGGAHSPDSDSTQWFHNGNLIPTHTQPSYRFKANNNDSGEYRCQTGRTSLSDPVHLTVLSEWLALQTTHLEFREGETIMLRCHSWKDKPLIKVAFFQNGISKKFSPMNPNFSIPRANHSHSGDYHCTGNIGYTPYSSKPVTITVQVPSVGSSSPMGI

T6: human FcγRIIb extracellular domain with C-terminal His-tag (human, UniProt P31994 43-217)
T6 construct: also called human FcgRIIb; FcgRIIb
T6 sequence: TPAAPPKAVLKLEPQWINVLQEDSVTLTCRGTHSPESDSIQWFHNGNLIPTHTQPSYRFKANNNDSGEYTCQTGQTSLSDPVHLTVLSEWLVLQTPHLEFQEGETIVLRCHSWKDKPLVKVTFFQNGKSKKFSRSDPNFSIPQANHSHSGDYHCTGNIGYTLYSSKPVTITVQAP

T7: human FcγRIIaR extracellular domain with C-terminal His-tag (human, UniProt P12318 34-217)
T7 construct: also called human FcγRIIa (type R); FcgRIIaR
T7 chain: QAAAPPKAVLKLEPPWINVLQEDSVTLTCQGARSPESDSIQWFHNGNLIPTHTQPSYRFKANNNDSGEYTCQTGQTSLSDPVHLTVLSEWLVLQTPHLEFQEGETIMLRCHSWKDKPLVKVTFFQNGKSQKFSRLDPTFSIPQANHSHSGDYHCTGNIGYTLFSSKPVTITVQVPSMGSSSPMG


Experiments:
Test in all cases: SPR; KD of SG1 / KD of variant
[1] = target: T8, human FcγRIIIaV extracellular domain with C-terminal His-tag (human, UniProt P08637 17-208)
T8 construct: also called human FcgRIIIaV; FcgRIIIaV
T8 sequence (P08637 17-208 F176V): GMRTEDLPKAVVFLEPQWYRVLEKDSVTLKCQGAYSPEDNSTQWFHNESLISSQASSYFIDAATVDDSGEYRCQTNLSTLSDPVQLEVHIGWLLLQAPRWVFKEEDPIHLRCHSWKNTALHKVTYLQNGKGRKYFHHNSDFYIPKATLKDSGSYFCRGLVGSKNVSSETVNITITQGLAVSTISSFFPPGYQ

[2] = target: T1, cynomolgus monkey FcγRIIb extracellular …
[3] = target: T2, cynomolgus monkey FcγRIIIaS …
[4] = target: T3, cynomolgus monkey FcγRIIa2 …
[5] = target: T4, cynomolgus monkey FcγRIIa1 …
[6] = target: T5, cynomolgus monkey FcγRIIa3 …
[7] = target: T6, human FcγRIIb extracellular domain with …
[8] = target: T7, human FcγRIIaR extracellular domain …

KD fold (SG1 = 1) [1] [fold] | KD fold (SG1 = 1) [2] [fold] | KD fold (SG1 = 1) [3] [fold] | KD fold (SG1 = 1) [4] [fold] | KD fold (SG1 = 1) [5] [fold] | KD fold (SG1 = 1) [6] [fold] | KD fold (SG1 = 1) [7] [fold] | KD fold (SG1 = 1) [8] [fold] | Binder
0.07 | 11.3 | 0.19 | 9.8 |  |  |  |  | M103205H795-MY213 (heavy chain) with M103202L889-SK1 (light chain) (antibody, human IgG1, kappa, name in EU numbering, Substitutions introduced into M103205H795-SG1; positions in EU numbering) heavy: QVTLKESGPVLVKPTETLTLTCTVSGIDLSHDDISWVRQAPGKGLEWVGIISYAGSTYYASWAKGRLTISKDTSKNQVVLTMTNMDPVDTATYYCARGVPAYSHGGDLWGQGTLVTVSSASTKGPSVFPLAPSSKSTSGGTAALGCLVKDYFPEPVTVSWNSGALTSGVHTFPAVLQSSGLYSLSSVVTVPSSSLGTQTYICNVNHKPSNTKVDKKVEPKSCDKTHTCPPCPAPELLNGPSVFLFPPKPKDTLMISRTPEVTCVVVDVSDEDPEVKFNWYVDGVEVHNAKTKPREEQYNSTYRVVSVLTVLHQDWLNGKEYKCKVSNKALPKPIEKTISKAKGQPREPQVYTLPPSREEMTKNQVSLTCLVKGFYPSDIAVEWESNGQPENNYKTTPKVLDSDGSFFLYSKLTVDKSRWQQGNVFSCSVMHEALHNHYTQKSLSLSP light: DIVMTQSPATLSLSPGERATLSCTSSQSVYHANWLSWFQQKPGQPPKLLIYWASTLAYGVPSRFSGSGSGTDFTLTISSLQPEDAATYYCAGGYGGGRYAFGQGTKVEIKRTVAAPSVFIFPPSDEQLKSGTASVVCLLNNFYPREAKVQWKVDNALQSGNSQESVTEQDSKDSTYSLSSTLTLSKADYEKHKVYACEVTHQGLSSPVTKSFNRGEC
0.01 |  | 0.06 |  | 0.9 |  |  |  | M103205H795-MY219 (heavy chain) with M103202L889-SK1 (light chain) (antibody, human IgG1, kappa, name in EU numbering, Substitutions introduced into M103205H795-SG1; positions in EU numbering) heavy: QVTLKESGPVLVKPTETLTLTCTVSGIDLSHDDISWVRQAPGKGLEWVGIISYAGSTYYASWAKGRLTISKDTSKNQVVLTMTNMDPVDTATYYCARGVPAYSHGGDLWGQGTLVTVSSASTKGPSVFPLAPSSKSTSGGTAALGCLVKDYFPEPVTVSWNSGALTSGVHTFPAVLQSSGLYSLSSVVTVPSSSLGTQTYICNVNHKPSNTKVDKKVEPKSCDKTHTCPPCPAPELLGYPSVFLFPPKPKDTLMISRTPEVTCVVVDVSDEDPEVKFNWYVDGVEVHNAKTKPREEQYNSTYRVVSVLTVLHQDWLNGKEYKCKVSNKALPKPIEKTISKAKGQPREPQVYTLPPSREEMTKNQVSLTCLVKGFYPSDIAVEWESNGQPENNYKTTPPVLDSDGSFFLYSKLTVDKSRWQQGNVFSCSVMHEALHNHYTQKSLSLSP light: DIVMTQSPATLSLSPGERATLSCTSSQSVYHANWLSWFQQKPGQPPKLLIYWASTLAYGVPSRFSGSGSGTDFTLTISSLQPEDAATYYCAGGYGGGRYAFGQGTKVEIKRTVAAPSVFIFPPSDEQLKSGTASVVCLLNNFYPREAKVQWKVDNALQSGNSQESVTEQDSKDSTYSLSSTLTLSKADYEKHKVYACEVTHQGLSSPVTKSFNRGEC
0.09 |  | 0.16 | 1.1 |  | 1.5 |  |  | M103205H795-MY308 (heavy chain) with M103202L889-SK1 (light chain) (antibody, human IgG1, kappa, name in EU numbering, Substitutions introduced into M103205H795-SG1; positions in EU numbering) heavy: QVTLKESGPVLVKPTETLTLTCTVSGIDLSHDDISWVRQAPGKGLEWVGIISYAGSTYYASWAKGRLTISKDTSKNQVVLTMTNMDPVDTATYYCARGVPAYSHGGDLWGQGTLVTVSSASTKGPSVFPLAPSSKSTSGGTAALGCLVKDYFPEPVTVSWNSGALTSGVHTFPAVLQSSGLYSLSSVVTVPSSSLGTQTYICNVNHKPSNTKVDKKVEPKSCDKTHTCPPCPAPELLTGPSVFLFPPKPKDTLMISRTPEVTCVVVDVSEEDPEVKFNWYVDGVEVHNAKTKPREEQYNSTYRVVSVLTVLHQDWLNGKEYKCKVSNKALPKPIEKTISKAKGQPREPQVYTLPPSREEMTKNQVSLTCLVKGFYPSDIAVEWESNGQPENNYKTTPPVLDSDGSFFLYSKLTVDKSRWQQGNVFSCSVMHEALHNHYTQKSLSLSP light: DIVMTQSPATLSLSPGERATLSCTSSQSVYHANWLSWFQQKPGQPPKLLIYWASTLAYGVPSRFSGSGSGTDFTLTISSLQPEDAATYYCAGGYGGGRYAFGQGTKVEIKRTVAAPSVFIFPPSDEQLKSGTASVVCLLNNFYPREAKVQWKVDNALQSGNSQESVTEQDSKDSTYSLSSTLTLSKADYEKHKVYACEVTHQGLSSPVTKSFNRGEC
 |  | 1.24 |  |  |  | 3.8 |  | M103205H795-MY272 (heavy chain) with M103202L889-SK1 (light chain) (antibody, human IgG1, kappa, name in EU numbering, Substitutions introduced into M103205H795-SG1; positions in EU numbering) heavy: QVTLKESGPVLVKPTETLTLTCTVSGIDLSHDDISWVRQAPGKGLEWVGIISYAGSTYYASWAKGRLTISKDTSKNQVVLTMTNMDPVDTATYYCARGVPAYSHGGDLWGQGTLVTVSSASTKGPSVFPLAPSSKSTSGGTAALGCLVKDYFPEPVTVSWNSGALTSGVHTFPAVLQSSGLYSLSSVVTVPSSSLGTQTYICNVNHKPSNTKVDKKVEPKSCDKTHTCPPCPAPELLQGPSVFLFPPKPKDTLMISRTPEVTCVVVDVSDEDPEVKFNWYVDGVEVHNAKTKPREEQYNSTYRVVSVLTVLHQDWLNGKEYKCKVSNKALPKPIEKTISKAKGQPREPQVYTLPPSREEMTKNQVSLTCLVKGFYPSDIAVEWESNGQPENNYKTTPKVLDSDGSFFLYSKLTVDKSRWQQGNVFSCSVMHEALHNHYTQKSLSLSP light: DIVMTQSPATLSLSPGERATLSCTSSQSVYHANWLSWFQQKPGQPPKLLIYWASTLAYGVPSRFSGSGSGTDFTLTISSLQPEDAATYYCAGGYGGGRYAFGQGTKVEIKRTVAAPSVFIFPPSDEQLKSGTASVVCLLNNFYPREAKVQWKVDNALQSGNSQESVTEQDSKDSTYSLSSTLTLSKADYEKHKVYACEVTHQGLSSPVTKSFNRGEC
0.01 |  | 0.04 | 1.6 |  |  |  | 6.9 | M103205H795-MY228 (heavy chain) with M103202L889-SK1 (light chain) (antibody, human IgG1, kappa, name in EU numbering, Substitutions introduced into M103205H795-SG1; positions in EU numbering) heavy: QVTLKESGPVLVKPTETLTLTCTVSGIDLSHDDISWVRQAPGKGLEWVGIISYAGSTYYASWAKGRLTISKDTSKNQVVLTMTNMDPVDTATYYCARGVPAYSHGGDLWGQGTLVTVSSASTKGPSVFPLAPSSKSTSGGTAALGCLVKDYFPEPVTVSWNSGALTSGVHTFPAVLQSSGLYSLSSVVTVPSSSLGTQTYICNVNHKPSNTKVDKKVEPKSCDKTHTCPPCPAPELLGYPSVFLFPPKPKDTLMISRTPEVTCVVVDVSDEDPEVKFNWYVDGVEVHNAKTKPREELYNSTYRVVSVLTVLHQDWLNGKEYKCKVSNKALPKPIEKTISKAKGQPREPQVYTLPPSREEMTKNQVSLTCLVKGFYPSDIAVEWESNGQPENNYKTTPPVLDSDGSFFLYSKLTVDKSRWQQGNVFSCSVMHEALHNHYTQKSLSLSP light: DIVMTQSPATLSLSPGERATLSCTSSQSVYHANWLSWFQQKPGQPPKLLIYWASTLAYGVPSRFSGSGSGTDFTLTISSLQPEDAATYYCAGGYGGGRYAFGQGTKVEIKRTVAAPSVFIFPPSDEQLKSGTASVVCLLNNFYPREAKVQWKVDNALQSGNSQESVTEQDSKDSTYSLSSTLTLSKADYEKHKVYACEVTHQGLSSPVTKSFNRGEC

From patent publication US20250076311A1 (Chugai, published 2025)
